Laboratory results reported in article PMC10484741, “Human TRMT2A methylates tRNA and contributes to translation fidelity”.

How the values were obtained:
[1] = target: T1, hTRMT2A FL (WT) (Homo sapiens, UniProt Q8IZ69 1-625); assay: EMSA; low nM KD range; poly(U) competitor; EMSA: 50 mM HEPES-NaOH pH 7.5, 150 mM NaCl, 4% glycerol, 2.5 ng/ul poly(U), 5 nM RNA, 0-1.25 uM protein (final, as stated), 20 min room temperature; SPR: 150 mM NaCl, 50 mM HEPES-NaOH 7.5, 0.05% Tween, 25 C; settings: protein: recombinant; tags: N-terminal His-SUMO tag cleaved; label: 5'-32P; tRNA cloverleaf
T1 sequence: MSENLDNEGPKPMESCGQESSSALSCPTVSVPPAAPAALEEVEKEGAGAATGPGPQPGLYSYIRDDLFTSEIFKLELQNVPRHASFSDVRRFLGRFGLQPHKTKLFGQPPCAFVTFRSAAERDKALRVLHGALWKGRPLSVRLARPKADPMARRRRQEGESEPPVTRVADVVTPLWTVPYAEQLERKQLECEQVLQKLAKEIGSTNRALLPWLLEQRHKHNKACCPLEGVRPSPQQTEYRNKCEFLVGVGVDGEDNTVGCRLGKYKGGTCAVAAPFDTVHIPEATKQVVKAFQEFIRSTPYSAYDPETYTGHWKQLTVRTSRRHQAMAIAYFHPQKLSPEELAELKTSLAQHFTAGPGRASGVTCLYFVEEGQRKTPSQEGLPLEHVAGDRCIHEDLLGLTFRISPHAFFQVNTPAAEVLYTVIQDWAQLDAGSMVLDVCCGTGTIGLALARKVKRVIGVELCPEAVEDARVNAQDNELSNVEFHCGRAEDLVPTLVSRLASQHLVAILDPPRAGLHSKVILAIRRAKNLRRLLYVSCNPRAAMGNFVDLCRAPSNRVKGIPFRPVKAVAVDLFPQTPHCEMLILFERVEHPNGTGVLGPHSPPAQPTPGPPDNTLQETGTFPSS

[2] = target: T1, hTRMT2A FL (WT); assay: SPR; steady-state fit, apparent KD; EMSA: 50 mM HEPES-NaOH pH 7.5, 150 mM NaCl, 4% glycerol, 2.5 ng/ul poly(U), 5 nM RNA, 0-1.25 uM protein (final, as stated), 20 min room temperature; SPR: 150 mM NaCl, 50 mM HEPES-NaOH 7.5, 0.05% Tween, 25 C; settings: protein: recombinant; tags: N-terminal His-SUMO tag cleaved; label: 3' biotin; tRNA cloverleaf
[3] = target: T2, hTRMT2A CDM (catalytic death mutant) (Homo sapiens, UniProt Q8IZ69 1-625, E76A;K104E;F113A;K242A;F409A;Q411A;D510A;C538A); assay: as above; settings: protein: recombinant; tags: N-terminal His-SUMO tag cleaved; label: 3' biotin; tRNA cloverleaf
T2 sequence: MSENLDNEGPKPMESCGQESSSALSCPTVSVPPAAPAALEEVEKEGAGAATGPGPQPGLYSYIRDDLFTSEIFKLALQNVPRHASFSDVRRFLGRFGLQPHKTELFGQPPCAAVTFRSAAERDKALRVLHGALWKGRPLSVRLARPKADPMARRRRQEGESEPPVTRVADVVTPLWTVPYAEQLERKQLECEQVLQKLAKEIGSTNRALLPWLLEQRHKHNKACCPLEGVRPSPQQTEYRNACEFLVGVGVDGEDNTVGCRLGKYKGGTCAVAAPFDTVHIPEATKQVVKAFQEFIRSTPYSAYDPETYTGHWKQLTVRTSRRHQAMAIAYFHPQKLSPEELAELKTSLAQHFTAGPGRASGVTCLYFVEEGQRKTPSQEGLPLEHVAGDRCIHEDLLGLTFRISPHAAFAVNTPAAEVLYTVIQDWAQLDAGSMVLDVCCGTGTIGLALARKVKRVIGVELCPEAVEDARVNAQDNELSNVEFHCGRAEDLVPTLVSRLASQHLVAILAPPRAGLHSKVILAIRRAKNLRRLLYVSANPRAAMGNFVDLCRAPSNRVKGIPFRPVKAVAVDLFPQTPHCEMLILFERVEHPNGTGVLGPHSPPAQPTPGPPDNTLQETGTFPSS

[4] = target: T1, hTRMT2A FL (WT); assay: size exclusion chromatography; 1:1 mix; elution shift 17.41 to 15.46 ml; EMSA: 50 mM HEPES-NaOH pH 7.5, 150 mM NaCl, 4% glycerol, 2.5 ng/ul poly(U), 5 nM RNA, 0-1.25 uM protein (final, as stated), 20 min room temperature; SPR: 150 mM NaCl, 50 mM HEPES-NaOH 7.5, 0.05% Tween, 25 C; settings: protein: recombinant; tags: N-terminal His-SUMO tag cleaved; tRNA cloverleaf
[5] = target: T1, hTRMT2A FL (WT); assay: EMSA; low nM KD range; shift already at 60 nM; poly(U) competitor; EMSA: 50 mM HEPES-NaOH pH 7.5, 150 mM NaCl, 4% glycerol, 2.5 ng/ul poly(U), 5 nM RNA, 0-1.25 uM protein (final, as stated), 20 min room temperature; SPR: 150 mM NaCl, 50 mM HEPES-NaOH 7.5, 0.05% Tween, 25 C; settings: protein: recombinant; tags: N-terminal His-SUMO tag cleaved; label: 5'-32P; tRNA cloverleaf
[6] = target: T2, hTRMT2A CDM (catalytic death mutant); assay: EMSA; similar to WT, nM KD range, more supershifts; poly(U) competitor; EMSA: 50 mM HEPES-NaOH pH 7.5, 150 mM NaCl, 4% glycerol, 2.5 ng/ul poly(U), 5 nM RNA, 0-1.25 uM protein (final, as stated), 20 min room temperature; SPR: 150 mM NaCl, 50 mM HEPES-NaOH 7.5, 0.05% Tween, 25 C; settings: protein: recombinant; tags: N-terminal His-SUMO tag cleaved; label: 5'-32P; tRNA cloverleaf

B1: tRNAAla-AGC (A54) (structured_RNA)
RNA: GGGGAAUUAGCUCAGGCGGUAGAGCGCUCGCUUAGCAUGCGAGAGGUAGCGGGAUCGACGCCCGCAUUCUCCA
- binding result [1]: binds

B2: tRNAGln-TTG, 3' biotin (structured_RNA)
RNA: GGUCCCAUGGUGUAAUGGUUAGCACUCUGGACUUUGAAUCCAGCGAUCCGAGUUCAAAUCUCGGUGGGACCUCCA
modifications: 3' biotin
- Kd [2]: 306 ± 60 nM
- Kd [3]: 428 ± 71 nM

B3: tRNAGln-TTG, unlabeled (structured_RNA)
RNA: GGUCCCAUGGUGUAAUGGUUAGCACUCUGGACUUUGAAUCCAGCGAUCCGAGUUCAAAUCUCGGUGGGACCUCCA
- binding result [4]: binds

B4: tRNAGln U54G (structured_RNA)
RNA: GGUCCCAUGGUGUAAUGGUUAGCACUCUGGACUUUGAAUCCAGCGAUCCGAGGUCAAAUCUCGGUGGGACCUCCA
- binding result [1]: binds

B5: tRNAGln-TTG (structured_RNA)
RNA: GGUCCCAUGGUGUAAUGGUUAGCACUCUGGACUUUGAAUCCAGCGAUCCGAGUUCAAAUCUCGGUGGGACCUCCA
- binding result [5]: binds
- binding result [6]: binds
